Experimental data as given in publication PMC4912634.

Target: tubulin heterodimer (porcine/bovine brain tubulin) (not stated (porcine or bovine brain)) (UniProt Q6B856)
Assay: ITC; PN2-3 proteins/peptides titrated into tubulin in the cell; 15 °C; 1xBRB80 (80 mM PIPES-K, 1 mM MgCl2, 1 mM EGTA, pH 6.8); one set of binding sites model; tubulin 9 μM for wild type and mutant PN2-3

Kd: 4.8 µM
Binder: KQPFLKRGEGLARFTNAKSKFQK [PN2-3C peptide (PN2-3's C-terminus, aa 372-394 of CPAP)]
